What was measured:
[1] = target: PrfA (full-length PrfA^WT with two non-native N-terminal residues GA after TEV cleavage, used for crystallization) (Listeria monocytogenes) (UniProt P22262); experiment: crystal structure
[2] = target: PrfA (recombinant PrfA^WT from E. coli BL21(pET28aprfA^WT), used in the biophysical assays) (Listeria monocytogenes) (UniProt P22262)
[3] = target: PrfA (recombinant PrfA^WT from E. coli BL21(pET28aprfA^WT), used in the biophysical assays) (Listeria monocytogenes) (UniProt P22262); experiment: ITC; GE MicroCal iTC200; 100 uM PrfA in the cell, 2 uL of 250 uM peptide injected every 60 s; 50 mM Tris pH 7.5, 500 mM NaCl; one-site model

Sequence of PrfA (recombinant PrfA^WT from E. coli BL21(pET28aprfA^WT), used in the biophysical assays) (Listeria monocytogenes) (P22262 whole entry): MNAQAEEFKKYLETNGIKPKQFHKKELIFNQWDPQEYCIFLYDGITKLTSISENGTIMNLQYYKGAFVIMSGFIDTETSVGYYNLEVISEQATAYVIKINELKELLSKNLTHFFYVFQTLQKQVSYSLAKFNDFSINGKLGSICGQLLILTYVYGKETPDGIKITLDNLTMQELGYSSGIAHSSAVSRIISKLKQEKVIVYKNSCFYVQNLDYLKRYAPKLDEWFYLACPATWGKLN
Sequence of PrfA (full-length PrfA^WT with two non-native N-terminal residues GA after TEV cleavage, used for crystallization) (P22262 1-237, tags left off): as the sequence (P22262 whole entry) above

PrfA (full-length PrfA^WT with two non-native N-terminal residues GA after TEV cleavage, used for crystallization) (from UniProt P22262 1-237) (natural protein)
stoichiometry N [1]: 2

LLL peptide (Leu tripeptide)
other [2]: 87% | Kd [3]: 25 µM

LL peptide (Leu dipeptide, L-leucylleucine)
other [2]: 93% | Kd [3]: 25 µM
